Measurements as given in publication PMC9212699.

Experiments:
[1] = target: SARS-CoV-2 Omicron BA.3 RBD protein with His-tag, spike residues 319-541 (SARS-CoV-2); assay: SPR
[2] = target: BA.2 RBD with the S408R mutation (SARS-CoV-2); assay: SPR

Sequence of Human ACE2 protein, residues 19-615 (produced by HEK293F cells, used for SPR) (Q9BYF1 19-615): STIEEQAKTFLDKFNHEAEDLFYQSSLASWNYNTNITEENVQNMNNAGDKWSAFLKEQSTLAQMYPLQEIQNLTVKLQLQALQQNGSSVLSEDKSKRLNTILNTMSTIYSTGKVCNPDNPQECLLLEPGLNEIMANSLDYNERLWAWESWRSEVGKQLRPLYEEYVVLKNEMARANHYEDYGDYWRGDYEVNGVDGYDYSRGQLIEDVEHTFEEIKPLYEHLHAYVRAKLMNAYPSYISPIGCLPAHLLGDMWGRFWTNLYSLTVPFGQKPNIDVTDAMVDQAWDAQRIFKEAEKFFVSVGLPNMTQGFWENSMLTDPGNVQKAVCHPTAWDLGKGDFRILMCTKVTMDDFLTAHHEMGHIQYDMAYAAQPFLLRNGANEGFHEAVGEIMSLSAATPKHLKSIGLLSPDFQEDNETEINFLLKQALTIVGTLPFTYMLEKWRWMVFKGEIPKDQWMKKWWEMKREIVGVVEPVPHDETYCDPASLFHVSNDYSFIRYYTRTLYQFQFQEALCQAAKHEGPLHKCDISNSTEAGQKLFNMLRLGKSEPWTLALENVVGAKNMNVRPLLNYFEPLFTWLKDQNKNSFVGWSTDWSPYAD

Substance: Human ACE2 protein, residues 19-615 (produced by HEK293F cells, used for SPR) (from UniProt Q9BYF1-1 19-615) (receptor)
- Kd [1]: 22.1 nM
- Kd [2]: 16.4 nM
